Reference: patent US7138248B2, “Method of inhibiting inward rectifier, G-protein activated, mammalian, potassium channels and uses thereof” (California Institute of Technology, priority 1993, dated 2006)
Entries after “also recorded” stand apart in the source; their conditions may differ. One block for each molecule: values may come before it.

How the values were obtained:
[1] = test system: constitutively active inward rectifier K+ channel(s) (IhK); assay: Two-electrode voltage clamp of the high-K+-evoked inward current (IhK) in oocytes; assay type: cell-based, Xenopus laevis
Experimental: (§1) Preparation of RNA and oocytes. Total RNA was extracted from atria and ventricles of 19–21 day old rats of both sexes using the procedure of Chomczinski and Sacchi (1987) Anal. Biochem. 162:156–159. Poly (A) RNA was separated on an oligo-dT cellulose column (type 3, Collaborative Biochemical Products). Ventricle poly(A) RNA was fractionated by centrifugation (18 h, 30,000 g, 4° C.) on a linear 5%–25% sucrose gradient. Xenopus laevis oocytes were prepared as previously described (Dascal & Lotan (1992) in Methods in Molecular Biology, v. 13: Protocols in Molecular Neurobiology, eds. Longstaff & Revest). and injected with either 50–120 ng/oocyte poly(A) RNA, 120–200 ng/oocyte total RNA, or 35 ng/oocyte fractionated poly(A) RNA. In most cases, 5HT1A-R RNA (5–20 ng/oocyte) was co-injected with atrial or ventricle RNA. Final volume of the injected RNA solution was 50 nl. The oocytes were incubated for 3–7 days in the NDE solution (ND96 (see below) containing 1.8 Mm CaCl2 and supplemented with 2.5 Mm Na-pyruvate and 50 μg/ml gentamicin). Occasionally, either 2.5–5% heat-inactivated horse serum or 0.5 mM theophylline were added to the NDE solution. Incubation of oocytes in pertussis toxin (PTX; List Biochemicals) was done in NDE solution without the addition of pyruvate, serum or theophylline. cDNAs of 5HT1A receptor (Karschin et al. (1991) P.N.A.S. 88:5694–5698) and Gi2a (a gift from M. I. Simon, Caltech) in pBluescript were linearized, and RNA was synthesized in vitro as described (Dascal and Lotan, supra.).
Electrophysiological recordings were performed using the two electrode voltage clamp method with the Dagan 8500 amplifier (Dagan Instruments, Minneapolis) as described (Dascal et al. (1986) Mol. Brain Res. 1:201–209). The oocytes were usually kept in the ND96 solution: 96 mM NaCl/2 mM KC1/1 mM MgCl2/1 mM CaCl2/5 mM Hepes, pH=7.5. Most measurements were done in the high K^+ solution (hK): 96 mM KCl/2 mM NaCl/1 mM MgCl2/1 mM CaCl2/5 mM Hepes, pH=7.5. Solutions containing intermediate concentrations of K^+ were made by substituting K^+ for Na^+. Solution exchange and drug application were done by superfusing the cell placed in a 0.5 ml chamber. GDP-β-S (trilithium salt; Sigma) was injected by pressure (Dascal et al. supra.). Stimulation, data acquisition, and analysis were performed using pCLAMP software (Axon Instruments, Foster City, Calif.).

[2] = target: T1, atrial inward rectifier K+ (KG) channel (Rattus norvegicus, UniProt P48548+P63251); assay: Two-electrode voltage clamp of the transmitter-evoked inward current (I5HT) in oocytes injected with atrial RNA + 5HT1A-R RNA; assay type: cell-based
T1 construct: is expressed in oocytes injected with atrial RNA; expressed in transfected cells; host or cells: Xenopus laevis oocytes injected with rat atrial total or poly(A) RNA plus 5HT1A receptor cRNA
T1 sequence (P63251 1-501): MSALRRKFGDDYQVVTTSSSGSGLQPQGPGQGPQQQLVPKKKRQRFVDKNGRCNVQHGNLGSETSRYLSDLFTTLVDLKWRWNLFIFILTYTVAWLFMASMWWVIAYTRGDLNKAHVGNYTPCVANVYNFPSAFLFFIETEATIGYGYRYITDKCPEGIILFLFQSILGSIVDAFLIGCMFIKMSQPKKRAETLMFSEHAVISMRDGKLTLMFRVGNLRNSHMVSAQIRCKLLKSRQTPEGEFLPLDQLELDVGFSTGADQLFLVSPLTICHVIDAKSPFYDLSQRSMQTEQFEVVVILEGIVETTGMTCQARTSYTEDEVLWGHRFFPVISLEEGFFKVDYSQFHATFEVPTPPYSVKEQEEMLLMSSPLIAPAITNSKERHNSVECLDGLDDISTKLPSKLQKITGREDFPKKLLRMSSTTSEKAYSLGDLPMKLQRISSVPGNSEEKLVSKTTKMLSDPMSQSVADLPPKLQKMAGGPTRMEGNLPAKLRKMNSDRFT
T1 sequence (P48548 1-419): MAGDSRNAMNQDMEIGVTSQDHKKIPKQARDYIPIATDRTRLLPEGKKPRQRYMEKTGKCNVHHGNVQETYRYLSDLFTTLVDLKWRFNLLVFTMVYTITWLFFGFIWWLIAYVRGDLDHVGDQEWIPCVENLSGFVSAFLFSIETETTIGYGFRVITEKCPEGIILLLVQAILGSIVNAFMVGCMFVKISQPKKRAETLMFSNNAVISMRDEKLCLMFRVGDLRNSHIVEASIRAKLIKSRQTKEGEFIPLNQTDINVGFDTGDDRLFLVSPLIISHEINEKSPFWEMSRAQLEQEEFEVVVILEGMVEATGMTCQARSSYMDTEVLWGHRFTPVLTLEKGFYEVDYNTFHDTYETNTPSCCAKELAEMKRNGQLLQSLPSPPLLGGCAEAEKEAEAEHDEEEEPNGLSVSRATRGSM

[3] = target: Kir3.2, isolated by PCR from mouse brain RNA (mouse) (UniProt P48542); assay: cell-based or functional assay
Kir3.2, isolated by PCR from mouse brain RNA (mouse), sequence (P48542 whole entry): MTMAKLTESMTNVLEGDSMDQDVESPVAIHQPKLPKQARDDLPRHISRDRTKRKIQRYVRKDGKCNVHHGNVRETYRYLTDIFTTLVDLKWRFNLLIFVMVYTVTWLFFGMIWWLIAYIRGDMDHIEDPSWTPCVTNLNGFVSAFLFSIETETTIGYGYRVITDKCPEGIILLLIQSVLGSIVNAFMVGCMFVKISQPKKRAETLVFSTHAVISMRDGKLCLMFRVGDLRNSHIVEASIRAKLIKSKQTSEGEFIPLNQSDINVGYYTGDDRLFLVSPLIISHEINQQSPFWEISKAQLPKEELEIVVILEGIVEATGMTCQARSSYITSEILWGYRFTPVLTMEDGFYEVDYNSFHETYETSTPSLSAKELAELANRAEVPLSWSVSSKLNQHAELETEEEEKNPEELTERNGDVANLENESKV

[4] = target: Kir3.1 (Kir3.1/KGA), inward rectifier G-protein activated potassium channel polypeptide cloned from cardiac atrium (rat) (UniProt P63251); assay: cell-based or functional assay
Kir3.1 = assay: ACh-induced inward current (m2R activation) in oocytes injected with Kir3.1 cRNA; assay type: cell-based, rat; conditions: 1 μM ACh, 1 ng cRNA, n=5
Source text: (§2) Plasmids and DNAS. To isolate Kir3.2 and Kir3.3 from mouse brain RNA, oligonucleotides were designed that anneal to the first assigned methionine codon and the assigned stop codon of mouse Kir3.2 and Kir3.3 (Lesage et al (1994) FEBS Lett. 353:37–42). Kir3.0-specific sequences were coupled to a 5′-end untranslated sequence from alfalfa mosaic virus (Jobling and Gehrke (1987) Nature 325:622–625) and a T7 RNA polymerase recognition site to confer an optimal translational initiation site and allow RNA synthesis […] (cRNA). At the 3′ end, a poly(A) tail was added to confer RNA stability. Total RNA from adult mouse brain (purchased from Clontech) was used as template for cDNA synthesis (Sambrook et al., supra.). PCR was conducted in a thermal cycler (Perkin-Elmer) by using Vent Polymerase (New England Biolabs), which minimizes misincorporations during the amplification step. Kir3.2 and Kir3.3 PCR-derived sequences were then inserted into the pNoTA vector (5 Prime→3 Primer, Inc.) for subsequent sequence analysis. […]
(§3) Electrophysiology. Whole-cell currents from oocytes were measured by using an Axoclamp 2A or Geneclamp 500 amplifier (Axon Instruments, Foster City, Calif.) in the two-electrode, voltage-clamp configuration. […]

Kir3.2 = assay: ACh-induced inward current (m2R activation) in oocytes injected with Kir3.2 cRNA; assay type: cell-based, mouse; conditions: 1 μM ACh, 1 ng cRNA, n=7
Source text: as §2, §3

Kir3.1+2 = assay: ACh-induced inward current (m2R activation) in oocytes coinjected with Kir3.1 and Kir3.2 cRNAs; assay type: cell-based, rat Kir3.1, mouse Kir3.2; conditions: 1 μM ACh, 0.5 ng each cRNA per oocyte, mean±SEM, n=5
Source text: as §2, §3

Xenopus laevis oocytes = assay: Membrane (resting) current of oocytes in normal ND96 solution, two-electrode voltage clamp; assay type: cell-based
Experimental: as §1, with “Incubation of oocytes in pertussis toxin (PTX; List Biochemicals) was done in NDE solution without the addition of pyruvate, serum or theophylline. cDNAs of 5HT1A receptor (Karschin et al. (1991) P.N.A.S. 88:5694–5698) and Gi2a (a gift from M. I. Simon, Caltech) in pBluescript were linearized, and RNA was synthesized in vitro as described (Dascal and Lotan, supra.).” left out

[5] = target: serotonin 5HT1A receptor (5HT1A-R); assay: cell-based or functional assay
[6] = RNA-injected oocytes without Gi2α RNA, 500 ng/ml, 20–26 h
[7] = 400–800 pmole/oocyte injected, 4 cells

Experimental for native oocytes: Electrophysiological recordings were performed using the two electrode voltage clamp method with the Dagan 8500 amplifier (Dagan Instruments, Minneapolis) as described (Dascal et al. (1986) Mol. Brain Res. 1:201–209). […]

Molecule: pertussis toxin [PTX]
effect of treatment on IhK [1, 6]: not affected | effect on IhK ([1]; oocytes injected with atrial RNA plus cRNAs encoding 5HT1A-R and Gi2α): unaffected | effect of treatment on I5HT [2, 6]: not affected | inhibition of I5HT ([2]; oocytes injected with atrial RNA plus cRNAs encoding 5HT1A-R and Gi2α, P<0.01): about 50%

Gβγ-induced, inwardly rectifying currents in oocytes injected with Kir3.2 cRNA alone (1 ng per oocyte) [3]: -5.1 µA | inward K+ current (IK) in high-K+ solution, Kir3.2 alone with Gβ1γ2 [3]: -305 nA | inward K+ current (IK) in high-K+ solution, Kir3.1 alone with Gβ1γ2 [4]: -104 nA | inward K+ current (IK), Kir3.1 alone (control of the Kir3.1+3 experiment) [4]: -481 nA
Molecule: G protein subunits Gβ1 and Gγ2 (Gβ1γ2)

Molecule: CC(=O)OCC[N+](C)(C)C [ACh, acetylcholine]
inward currents induced by ACh (IK,ACh) (Kir3.1): −365±45 nA | inward currents induced by ACh (IK,ACh) (Kir3.2): −698±98 nA | inward currents induced by ACh (IK,ACh) (Kir3.1+2): −6.4±0.8 μA

fold increase of IK of Kir3.1+2 over Kir3.1 alone (with Gβ1γ2) [4]: 40 fold | fold increase of IK of Kir3.1+2 over Kir3.2 alone (with Gβ1γ2) [4]: 14 fold | fold increase of the ACh-induced current of Kir3.1+2 over Kir3.1 alone [4]: 17 fold | fold increase of the ACh-induced current of Kir3.1+2 over Kir3.2 alone [4]: 9 fold | fold increase of the major open-time component of Kir3.1+2 against Kir3.2 alone [4]: 7 fold | inward K+ current (IK) in high-K+ solution, Kir3.1+2 coexpressed with Gβ1γ2 [4]: -4.3 µA | inward currents induced by ACh (IK,ACh), Kir3.1+2 coexpressed with m2R, 1 µM ACh [4]: -6.4 µA | major component of single-channel open-time duration, Kir3.1+2 [4]: 3.5 ms | time constant of the slower activation component at -80 mV, Kir3.1+2 coexpressed [4]: 213 ms
Molecule: Kir3.2, isolated by PCR from mouse brain RNA (from UniProt P48542 1-425)

Gβγ-induced, inwardly rectifying currents in oocytes coinjected with Kir3.2 and Kir3.3 cRNAs (0.5 ng each per oocyte) [3]: -129 nA | fold increase of IK of Kir3.1+3 over Kir3.1 alone [4]: 7 fold | inward K+ current (IK), Kir3.1 and Kir3.3 coexpressed (Kir3.1+3) [4]: -3.4 µA
Molecule: Kir3.3, isolated by PCR from mouse brain RNA (from UniProt P48543 1-393)

Molecule: [Ba+2] [Ba^2+]
change in resting current or conductance in normal ND96 (Xenopus laevis oocytes; 5 μM-3 mM, native or RNA-injected oocytes, holding potential -80 mV): did not cause any significant changes | block of IhK ([1]; 300 μM, hK solution): about 20% | IC50 ([1]; hK solution, -80 mV, FIG. 3D, read-out: IC50 for IhK block): > 3000 µM | block of I5HT ([2]; 300 μM, hK solution, FIG. 3B): almost completely blocks; also recorded: almost completely abolished | IC50 ([2]; hK solution, -80 mV, FIG. 3D, read-out: IC50 (half-inhibition concentration) for block of I5HT): ~15 µM

PTX inhibition of I5HT in oocytes injected with atrial RNA plus cRNAs encoding 5HT1A-R and Gi2α [5]: 50%
Molecule: Gi2α, PTX-sensitive α subunit of a G-protein

Molecule: NCCc1c[nH]c2ccc(O)cc12 [5HT, serotonin]
change in membrane current in ND96 bath solution (Xenopus laevis oocytes; RNA-injected oocytes, 4 to 5 days after injection, 10 μM ACh or 1–2 μM 5HT): did not cause any significant change | EC50 [2]: ~0.015 µM | inward current induced by the transmitter in hK solution ([2]; RNA-injected oocytes of one frog, n=6): 1102±84 nA | saturation of the I5HT dose-response curve ([2]; hK solution, FIG. 1C): about 100 nM | I5HT, inward current evoked by 5HT ([2]; oocytes injected with Atrial + 5HT1A-R RNA, -80 mV, hK solution, 5HT 100 nM to 2 μM, mean±SEM (n)): 290 ± 43 (55) nA | effect of 5HT on current (native oocytes): no effect

Molecule: Nc1nc2c(ncn2[C@@H]2O[C@H](COP(=O)(O)OP(O)(O)=S)[C@@H](O)[C@H]2O)c(=O)[nH]1 [GDP-β-S]
IhK after injection, % of control [1, 7]: 115±8 % of control | I5HT after injection, % of control [2, 7]: 4±1 % of control
